Test results: paper PMC11906848, “Rational engineering of a thermostable α-oxoamine synthase biocatalyst expands the substrate scope and synthetic applicability” (Communications Chemistry, 2025)
Numbering of substitutions follows the chain as printed. In names and notes the source's numbering stands.

Columns and labels:
ThAOS [1] = target: T1, ThAOS (Thermus thermophilus, UniProt Q5SHZ8); assay: UV-vis spectroscopy of purified holoenzyme; assay type: binding; conditions: covalent; internal aldimine
T1 construct: gene TTHA1582; recombinant in E. coli BL21(DE3), pET28a, TEV-cleavable N-terminal His6 tag; homodimer; active site includes V79 of the other monomer
Target sequence in this assay (Q5SHZ8 whole entry): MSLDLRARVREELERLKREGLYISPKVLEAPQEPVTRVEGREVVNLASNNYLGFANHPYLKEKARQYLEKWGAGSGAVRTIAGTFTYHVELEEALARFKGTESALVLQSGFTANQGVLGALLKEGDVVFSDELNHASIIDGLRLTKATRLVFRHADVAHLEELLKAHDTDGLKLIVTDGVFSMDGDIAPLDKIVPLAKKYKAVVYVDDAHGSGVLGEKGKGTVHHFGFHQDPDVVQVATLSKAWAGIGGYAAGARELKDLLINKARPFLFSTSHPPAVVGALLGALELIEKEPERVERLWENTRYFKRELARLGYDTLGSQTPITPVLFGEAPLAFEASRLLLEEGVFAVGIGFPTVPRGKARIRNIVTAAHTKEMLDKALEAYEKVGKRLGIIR

ThAOS [2] = target: T1, ThAOS; assay: UV-vis titration of PLP spectrum; assay type: binding; conditions: 0-16 mM; external aldimine and some quinonoid formation
Target sequence in this assay (Q5SHZ8 whole entry): as above

ThAOS [3] = target: T1, ThAOS; assay: DTNB assay of CoASH release; assay type: biochemical; conditions: 16 mM L-Aba; 1 mM acetyl-CoA; HEPES pH 7.5; 50 °C
Target sequence in this assay (Q5SHZ8 whole entry): as above

ThAOS [4] = target: T1, ThAOS; assay: X-ray crystal structure (crystal soak), […] Å; UV-vis; assay type: binding; conditions: covalent PLP:L-Pen thiazolidine adduct; carboxylate chelated by Arg366
[5] = substrate: CC[C@H](N)C(=O)O; assay: DTNB assay of CoASH release; assay type: biochemical, Thermus thermophilus; conditions: acetyl-CoA co-substrate, HEPES pH 7.5, 50 °C
Source text: (§1) DTNB assay of CoASH release on ThAOS | catalytic efficiency (kcat/KM) for all four original amino acid substrates was improved substantially

[6] = substrate: NCC(=O)O; assay: DTNB assay of CoASH release; assay type: biochemical, Thermus thermophilus; conditions: acetyl-CoA co-substrate, HEPES pH 7.5, 50 °C
Source text: as §1

purified protein [7] = substrate: N[C@@H](CO)C(=O)O; assay: purified protein; conditions: acetyl-CoA co-substrate, HEPES pH 7.5, 50 °C
purified protein [8] = substrate: C[C@H](N)C(=O)O; assay: purified protein; conditions: acetyl-CoA co-substrate, HEPES pH 7.5, 50 °C
[9] = substrate: CC[C@H](N)C(=O)O; assay: DTNB assay of CoASH release; assay type: biochemical, Thermus thermophilus; conditions: acetyl-CoA co-substrate, HEPES pH 7.5, 50 °C; remark: listed apart in the source
[10] = substrate: NCC(=O)O; assay: DTNB assay of CoASH release; assay type: biochemical, Thermus thermophilus; conditions: acetyl-CoA co-substrate, HEPES pH 7.5, 50 °C; remark: listed apart in the source

Cc1ncc(COP(=O)(O)O)c(C=O)c1O [PLP, pyridoxal 5’-phosphate]
UV-vis spectroscopy of purified holoenzyme (ThAOS [1]): corresponding to the tautomeric forms of the PLP-bound internal aldimines

C[C@H](N)C(=O)O [L-Ala]
UV-vis titration of PLP spectrum (ThAOS [2]): L-Ala binding leads to a small amount of PLP: L-Ala quinonoid formation

CC[C@H](N)C(=O)O [L-Aba]
DTNB assay of CoASH release (ThAOS [3]): original set of four amino acid substrates (L-Aba, L-Ala, Gly and L-Ser)

CC(C)(S)[C@H](N)C(=O)O [L-Pen, L-penicillamine]
X-ray crystal structure (crystal soak), 1.5 Å; UV-vis (ThAOS [4]): The structure of ThAOS V79A PLP:L-Pen complex (PDB: 8S1Y)

B1: ThAOS (Thermus thermophilus HB8; V78A) (protein)
chain: MSLDLRARVREELERLKREGLYISPKVLEAPQEPVTRVEGREVVNLASNNYLGFANHPYLKEKARQYLEKWGAGSGAARTIAGTFTYHVELEEALARFKGTESALVLQSGFTANQGVLGALLKEGDVVFSDELNHASIIDGLRLTKATRLVFRHADVAHLEELLKAHDTDGLKLIVTDGVFSMDGDIAPLDKIVPLAKKYKAVVYVDDAHGSGVLGEKGKGTVHHFGFHQDPDVVQVATLSKAWAGIGGYAAGARELKDLLINKARPFLFSTSHPPAVVGALLGALELIEKEPERVERLWENTRYFKRELARLGYDTLGSQTPITPVLFGEAPLAFEASRLLLEEGVFAVGIGFPTVPRGKARIRNIVTAAHTKEMLDKALEAYEKVGKRLGIIR
notes: recombinant in E. coli BL21(DE3), pET28a, TEV-cleavable N-terminal His6 tag; homodimer; active site includes V79 of the other monomer
Km [5]: 3120 ± 350 µM
kcat [5]: 2.25 ± 0.08 s⁻¹
Km [6]: 8360 ± 1730 µM
kcat [6]: 3.89 ± 0.32 s⁻¹
Km (purified protein [7]): 2520 ± 300 µM
kcat (purified protein [7]): 3.81 ± 0.13 s⁻¹
Km (purified protein [8]): 1590 ± 250 µM
kcat (purified protein [8]): 1.23 ± 0.05 s⁻¹

B2: ThAOS (Thermus thermophilus HB8; V78G) (protein)
chain: B1 chain with A78G
notes: as for B1
Km (purified protein [7]): 4280 ± 960 µM
kcat (purified protein [7]): 5.74 ± 0.43 s⁻¹
Km (purified protein [8]): 2460 ± 50 µM
kcat (purified protein [8]): 2.39 ± 0.15 s⁻¹
Km [9]: 830 ± 150 µM
kcat [9]: 1.09 ± 0.04 s⁻¹
Km [10]: 9520 ± 1910 µM
kcat [10]: 5.12 ± 0.43 s⁻¹
